Assays:
[1] = test system: TF-1 TpoR CALR^del61 cells; experiment: Cell proliferation, trypan blue exclusion; format: cell-based, human; conditions: over 5 days at 2, 10 and 20 μg/mL
Protocol: […] Cells were seeded in triplicate and each well was counted in triplicate every 24 hours for 5 days using trypan blue exclusion.

[2] = test system: ruxolitinib-resistant TF-1 TpoR CALR^del61 cells in NSG mice; experiment: Bone marrow engraftment xenograft model, ruxolitinib-resistant cells; format: in vivo; conditions: cells resistant to 100 nM ruxolitinib; 12.5 mg/kg twice weekly from day 7; P=0.0008
Protocol: All procedures were approved by the South Australian Health and Medical Research Animal Ethics Committee (Protocol SAM21-018). Bone marrow engraftment model: 4-6 week old NSG mice were x-ray irradiated with 150 cGy and 5×10^5 cells (TF-1-TpoR CALR^del61) or 5×10^4 cells (100 nM ruxolitinib resistant TF-1 TpoR CALR^del61) were intravenously injected into mice. Seven days after injection, mice were administered 12.5 mg/kg IgG or 4D7 by intraperitoneal injection twice weekly. Tail vein bleeds were taken at 3 weeks and analysed via flow cytometry to determine human leukaemia content in the peripheral blood. Leukemic cells were PI-, mCD45.1, hCD33+, zsGreen+. Mice were monitored daily and euthanized once clinical symptoms were observed. At the time of euthanasia, cardiac puncture was performed to obtain both peripheral blood and serum for analysis. Additionally, bone marrow from both femurs, spine and spleens were analysed for leukemic content as detailed above. Chloroma model: 4-6 week old NSG mice were anaesthetised by isoflurane inhalation and shaved on the left back/flank and 1×10^7 cells were injected into the mice. Cells were pre-treated with 20 μg/mL IgG or 4D7 for 1 hour prior to injection. Seven days after injection, mice were administered 12.5 mg/kg IgG or 4D7 by intraperitoneal injection twice weekly. Tumour progression was assessed through caliper measurements every 2 days. […]

[3] = test system: TF-1 TpoR CALR^del61 and TF-1 TpoR CALR^del52 cells; experiment: Western blot of caspase 3 cleavage; format: cell-based, human; conditions: after 4D7 treatment, 20 μg/mL
Protocol: A. Cell extracts blotted for phospho-STAT5, total STAT5, phospho-ERK, total ERK and actin from TF-1 TpoR cells after incubation with 10 or 20 μg/mL 4D7 or IgG for 4 or 8 hours, in presence of TPO. The last line indicates TPO withdrawal. B. Similar experiment using TPO-independent TF-1 TpoR CALR^del61 cells. C. Similar experiment using TPO-independent TF-1 TpoR CALR^del52 cells at 8 hours. D. Fraction of apoptotic sub-Go population of TF-1 TpoR CALR^del61 cells after 48 hours of 4D7 or IgG treatment (n=3). E. Western blot showing caspase 3 cleavage occurring within 24 hours of TPO withdrawal in TPO dependent TF-1 TpoR cells. An increase in cleaved caspase 3 is observed after 48 hours of treatment with 20 μg/mL 4D7 in TF-1 TpoR CALR^del61 and TF-1 TpoR CALR^del52 cells. F. Western blot of TpoR immunoprecipitation under non-reducing conditions showing associated CALR 50 kDa monomers and 100 kDa dimers (arrowheads) present only in TF-1 TpoR CALR^del61 disrupted by 8 hour treatment with 20 μg/mL 4D7 but not PBS or 20 μg/mL IgG. CALR monomers & dimers are detectable by polyclonal anti-wild type CALR or anti-mutant CALR monoclonal antibodies. Arrowheads, detected mutant CALR protein: asterisk, non-specific bands. G. Proposed model for the mechanism of action of 4D7 on mutant CALR. […]

[4] = test system: TF-1 TpoR CALR^del52 cells; experiment: Cell proliferation, trypan blue exclusion; format: cell-based, human; conditions: over 5 days at 2, 10 and 20 μg/mL
Protocol: (§1) In brief, cells were seeded at 5×10^4/mL in standard growth media, with any necessary cytokines, and the addition of 20 μg/mL IgG or 2, 10 or 20 μg/mL 4D7. Cells were seeded in triplicate and each well was counted in triplicate every 24 hours for 5 days using trypan blue exclusion.

[5] = test system: TF-1 cells expressing TpoR alone (endogenous wild type CALR); experiment: Cell proliferation, trypan blue exclusion; format: cell-based, human; conditions: in presence of TPO; 2, 10 or 20 μg/mL
Protocol: as §1

B1: 4D7: rat monoclonal IgG2a antibody against the mutant CALR neoepitope; VH SEQ ID NO: 5, VL SEQ ID NO: 7 (antibody, listed as Rattus rattus, V domains shown)
VH: QVQLQQSGAELAKPGSSVKISCKASGYTFTNYDMSWIKQRPGQALEWIGAINPGNGVTDYNEKFRGKATLTVDKSSSTAFMQLSSLTPEDTAVYHCAREYRDNYGYFDYWGQGVMVTVSS
VL: DIVLTQTPVSLSVTLGDQASISCRSSQSLEYSDGYTYLDWFLQKPGQSPQLLIYEVSSRFSGVPDRFIGRGSGTDFTLKISRVEPEDLGVYYCFQATHDPFTFGSGTKLEIK
TPO-independent cell growth [1]: blockade of TPO-independent cell growth | survival, hazard ratio [2]: 0.26 | time at which caspase 3 cleavage occurred [3]: ≤ 24 h | time at which caspase 3 cleavage peaked [3]: 48 h | TPO-independent cell growth [4]: blockade of TPO-independent cell growth | inhibition of proliferation [5]: no inhibition

From patent US20250236667A1, “ANTIBODIES TO MUTANT CALRETICULIN AND USES THEREOF” (CENTRAL ADELAIDE LOCAL HEALTH NETWORK INC, priority 2021, published 2025)
